Laboratory results reported in patent US20200199204A1.

Key:
Experiment in all cases: cell-based or functional assay
[1] = target: HIV-1 Env of 0260.v5.c36 (HIV-1)
[2] = target: HIV-1 Env of 3016.V5.c36 (HIV-1)
[3] = target: HIV-1 Env of 6405.v4.c34 (HIV-1)
[4] = target: HIV-1 Env of 6535.3 (HIV-1)
[5] = target: HIV-1 Env of 96ZM651.02 (HIV-1)
[6] = target: HIV-1 Env of AC10.29 (HIV-1)
[7] = target: HIV-1 Env of BG505.w6m (HIV-1)
[8] = target: HIV-1 Env of C1080.c3 (HIV-1)
[9] = target: HIV-1 Env of CAAN.A2 (HIV-1)
[10] = target: HIV-1 Env of CAP210.E8 (HIV-1)
[11] = target: HIV-1 Env of CAP244.D3 (HIV-1)
[12] = target: HIV-1 Env of CAP256.PI (HIV-1)
[13] = target: HIV-1 Env of CAP256.SU (HIV-1)
[14] = target: HIV-1 Env of CAP45.G3 (HIV-1)
[15] = target: HIV-1 Env of CM244.ec1 (HIV-1)
[16] = target: HIV-1 Env of CNE3 (HIV-1)
[17] = target: HIV-1 Env of DU156.12 (HIV-1)
[18] = target: HIV-1 Env of DU172.17 (HIV-1)
[19] = target: HIV-1 Env of DU422.01 (HIV-1)
[20] = target: HIV-1 Env of KER2008.12 (HIV-1)
[21] = target: HIV-1 Env of KER2018.11 (HIV-1)
[22] = target: HIV-1 Env of MB201 (HIV-1)
[23] = target: HIV-1 Env of MB539.2B7 (HIV-1)
[24] = target: HIV-1 Env of PVO.04 (HIV-1)
[25] = target: HIV-1 Env of Q168.a2 (HIV-1)
[26] = target: HIV-1 Env of Q23.17 (HIV-1)
[27] = target: HIV-1 Env of Q259.d2.17 (HIV-1)
[28] = target: HIV-1 Env of Q461.e2 (HIV-1)
[29] = target: HIV-1 Env of Q769.d22 (HIV-1)
[30] = target: HIV-1 Env of Q842.d12 (HIV-1)
[31] = target: HIV-1 Env of QH0692.42 (HIV-1)
[32] = target: HIV-1 Env of REJO.67 (HIV-1)
[33] = target: HIV-1 Env of RHPA.7 (HIV-1)
[34] = target: HIV-1 Env of RW020.2 (HIV-1)
[35] = target: HIV-1 Env of SC422.8 (HIV-1)
[36] = target: HIV-1 Env of TH976.17 (HIV-1)
[37] = target: HIV-1 Env of THRO.18 (HIV-1)
[38] = target: HIV-1 Env of TRJO.58 (HIV-1)
[39] = target: HIV-1 Env of TRO.11 (HIV-1)
[40] = target: HIV-1 Env of UG037.8 (HIV-1)
[41] = target: HIV-1 Env of WITO.33 (HIV-1)
[42] = target: HIV-1 Env of ZM109.4 (HIV-1)
[43] = target: HIV-1 Env of ZM135.10a (HIV-1)
[44] = target: HIV-1 Env of ZM197.7 (HIV-1)
[45] = target: HIV-1 Env of ZM214.15 (HIV-1)
[46] = target: HIV-1 Env of ZM233.6 (HIV-1)
[47] = target: HIV-1 Env of ZM249.1 (HIV-1)
[48] = target: HIV-1 Env of ZM53.12 (HIV-1)

Measured: IC50 (neutralization, TZM-bl)

CAP256-VRC26.29 (antibody)
0.001 µg/mL: [48]
0.093 µg/mL: [47]
0.007 µg/mL: [25]
0.019 µg/mL: [27]
1.13 µg/mL: [15]
4 µg/mL: [24]
13.3 µg/mL: [23]
13.6 µg/mL: [45]
1.69 µg/mL: [30]
0.023 µg/mL: [26]
0.046 µg/mL: [7]
2 µg/mL: [28]
20.4 µg/mL: [6]
0.012 µg/mL: [2]
< 0.0006 µg/mL: [10] | [13] | [21]
0.003 µg/mL: [46]
0.009 µg/mL: [8]
0.684 µg/mL: [20]
0.076 µg/mL: [14]
0.136 µg/mL: [17] | [44]
0.072 µg/mL: [19]
> 50 µg/mL: all other assays above

CAP256-VRC26.30 (antibody)
0.848 µg/mL: [17]
1 µg/mL: [44]
1.05 µg/mL: [2]
37.8 µg/mL: [5]
0.188 µg/mL: [46]
0.199 µg/mL: [25]
0.4 µg/mL: [19]
0.073 µg/mL: [8]
0.107 µg/mL: [27]
0.317 µg/mL: [14]
< 0.0006 µg/mL: [10] | [13] | [21] | [48]
0.762 µg/mL: [47]
12.6 µg/mL: [24]
9.04 µg/mL: [7]
> 50 µg/mL: all other assays above

CAP256-VRC26.31 (antibody)
0.003 µg/mL: [10]
4.16 µg/mL: [25]
4.46 µg/mL: [17]
0.74 µg/mL: [46]
1.67 µg/mL: [8]
0.262 µg/mL: [27]
3.22 µg/mL: [44]
1.66 µg/mL: [19]
0.002 µg/mL: [21]
< 0.0006 µg/mL: [13] | [48]
> 50 µg/mL: all other assays above

CAP256-VRC26.32 (antibody)
0.284 µg/mL: [2]
0.097 µg/mL: [44]
16.8 µg/mL: [47]
0.032 µg/mL: [21]
17.8 µg/mL: [24]
0.011 µg/mL: [48]
0.004 µg/mL: [13]
0.015 µg/mL: [46]
0.561 µg/mL: [15]
0.008 µg/mL: [10]
> 50 µg/mL: all other assays above
